# Values of other authors in paper PMC2730980.
# Molecular target: Synaptotagmin II (Rattus norvegicus) (UniProt P29101)
# Sequence of UniProt P29101 (P29101 whole entry): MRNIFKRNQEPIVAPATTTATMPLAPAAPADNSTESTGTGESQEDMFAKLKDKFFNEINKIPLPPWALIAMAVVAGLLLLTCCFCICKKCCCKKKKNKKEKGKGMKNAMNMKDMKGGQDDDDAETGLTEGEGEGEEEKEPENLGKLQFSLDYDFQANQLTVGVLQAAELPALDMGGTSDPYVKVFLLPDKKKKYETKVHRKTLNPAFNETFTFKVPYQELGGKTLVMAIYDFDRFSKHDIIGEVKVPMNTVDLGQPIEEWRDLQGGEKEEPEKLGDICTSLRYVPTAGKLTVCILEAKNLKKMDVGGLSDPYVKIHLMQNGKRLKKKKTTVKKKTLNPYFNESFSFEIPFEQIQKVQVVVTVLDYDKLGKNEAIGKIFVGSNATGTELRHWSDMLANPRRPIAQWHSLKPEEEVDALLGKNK
substance,measurement,value
Botulinum neurotoxin type B (from UniProt P10844),Kd,0.4 nM
